Reference: patent publication US20170355953A1 (OSAKA UNIVERSITY, published 2017)

Target: T1, N-terminally TARGET-tagged human afamin (human, UniProt P43652 22-599)
T1 construct: also called hAFM; (TARGET-tagged) afamin; not shown: N-terminal TARGET tag
T1 sequence (looked up): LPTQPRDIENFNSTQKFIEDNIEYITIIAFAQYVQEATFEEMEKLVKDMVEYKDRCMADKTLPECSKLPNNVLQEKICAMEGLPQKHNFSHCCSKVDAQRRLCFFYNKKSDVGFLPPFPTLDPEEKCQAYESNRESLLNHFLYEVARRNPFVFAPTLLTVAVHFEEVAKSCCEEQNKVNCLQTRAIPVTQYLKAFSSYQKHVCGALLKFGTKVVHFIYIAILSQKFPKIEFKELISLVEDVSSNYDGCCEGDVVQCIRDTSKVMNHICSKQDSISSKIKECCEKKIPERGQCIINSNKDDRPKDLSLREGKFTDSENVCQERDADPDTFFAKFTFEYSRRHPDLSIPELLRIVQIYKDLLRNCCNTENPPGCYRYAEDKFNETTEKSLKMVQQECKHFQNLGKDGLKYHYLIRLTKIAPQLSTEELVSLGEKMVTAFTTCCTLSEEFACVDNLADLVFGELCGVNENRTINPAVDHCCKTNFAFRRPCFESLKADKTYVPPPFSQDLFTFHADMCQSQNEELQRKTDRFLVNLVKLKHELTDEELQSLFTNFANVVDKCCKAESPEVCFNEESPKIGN
Experiment: co-immunoprecipitation on P20.1-sepharose (TARGET tag on afamin), western blotting with biotin-modified NZ-1
Experimental: The transfected cells of each type were cultured for 90 hours in a serum-free culture medium, and the supernatants were separately harvested. To 1 mL of each supernatant, 20 μL of NZ-1-sepharose or P20.1-sepharose was added, and the mixture was rotated end over end for 1 hour. The sepharose was precipitated by centrifugation, and the supernatant was removed. After the sepharose was washed 3 times with 1 mL of TBS, 30 μL of SDS sample buffer was added, and elution was performed under heating at 95° C. for 2 minutes. The eluate was subjected to western blotting using biotin-modified NZ-1.

B1: N-terminally PA-tagged human Wnt3 (ligand)
chain: GVAMPGAEDDVVGYPIWWSLALGQQYTSLGSQPLLCGSIPGLVPKQLRFCRNYIEIMPSVAEGVKLGIQECQHQFRGRRWNCTTIDDSLAIFGPVLDKATRESAFVHAIASAGVAFAVTRSCAEGTSTICGCDSHHKGPPGEGWKWGGCSEDADFGVLVSREFADARENRPDARSAMNKHNNEAGRTTILDHMHLKCKCHGLSGSCEVKTCWWAQPDFRAIGDFLKDKYDSASEMVVEKHRESRGWVETLRAKYSLFKPPTERDLVYYENSPNFCEPNPETGSFGTRDRTCNVTSHGIDGCDLLCCGRGHNTRTEKRKEKCHCIFHWCCYVSCQECIRIYDVHTCK
binding result: binds
